These results are taken from patent publication US20070265189A1 (published 2007).

The first assay concerns the target T1, soluble human insulin receptor-immunoglobulin heavy chain chimera (sIR-Fc; Bass et al., 1996) (human, UniProt P06213 28-956, limits assumed).
T1 construct: extracellular domain; also called soluble IR (Bass construct); not shown: immunoglobulin heavy chain constant domains
Description: phage ELISA.
Regarding LRIANLFYQRLWDLAFGGGG [20E2B-3-E8-IGFR], the IR/IGF-1R comparison was found to be 0.1 and the “Ratio over Background” value is 1.5.
Taken in the same sequence, the figures for DRAFYNGLRDLVGAVYGAWD [R20α-4-20C11-IR] were 0.1 and 3.
On the same counts, the results for YSCGDGFYSLLSDLLGGQFRC [20E2B-4-H12-IGFR] are 0.1 and 0.8.
On the same counts, the results for PVGVQGFYEGLSRLVLGRGGW [20E2B-4-F8-IGFR] are 0.1 and 0.8.
For the molecule RGMKEEVLVGGSTDPFYHKLSELLQGS [B6Hα-3-F11-IR], the IR/IGF-1R comparison was found to be 0.1 and the “Ratio over Background” value was found to be 1.6.
For the molecule IQQELTFYDLLHRLVRSELGS [20E2B-3-D2-IGFR], the IR/IGF-1R comparison amounted to 0.1 and the “Ratio over Background” value is 1.1.
On the same counts, the results for GGTEVDFYRALERLVRGQLGL [20E2B-3-D8-IGFR] are 0.1 and 1.6.
On the same counts, the results for QPAPDGFYSALMKLIGRGGVS [20E2B-3-C8-IGFR] are 0.1 and 1.8.
Taken in the same sequence, the figures for AQPCGGFYGLLEQLVGRSVCD [20E2B-4-F10-IGFR] were 0.1 and 2.2.
With PGTDLGFYQALRCVVIQGACD [20E2B-2-B2-IGFR], the IR/IGF-1R comparison amounted to 0.1 and the “Ratio over Background” value stood at 0.6.
On the same counts, the results for SACQFDCHENFYDWFARQVSGGAAYG [H2CA-4-H8-IGFR] are 0.1 and 1.
Taken in the same sequence, the figures for NSRDGGFYLQLERLLGFPVTG [20E2B-3-D4-IGFR] were 0.1 and 0.8.
On the same counts, the results for RFSTDGFYQYLLALVGGGPVG [20E2B-1-A11-IGFR] are 0.1 and 1.

The target in a further assay is T2, Soluble IGF-1R (sIGF-1R), R&D Systems Cat. # 391-GR/CF (UniProt P08069 31-935, limits assumed).
T2 construct: extracellular domain
Description: phage ELISA.
Regarding LRIANLFYQRLWDLAFGGGG [20E2B-3-E8-IGFR], the IGF-1R/IR comparison was 11.1 and the “Ratio over Background” value stood at 16.7.
On the same counts, the results for DRAFYNGLRDLVGAVYGAWD [R20α-4-20C11-IR] are 10.3 and 30.8.
On the same counts, the results for YSCGDGFYSLLSDLLGGQFRC [20E2B-4-H12-IGFR] are 12.8 and 9.7.
On the same counts, the results for PVGVQGFYEGLSRLVLGRGGW [20E2B-4-F8-IGFR] are 9.7 and 7.3.
Turning to RGMKEEVLVGGSTDPFYHKLSELLQGS [B6Hα-3-F11-IR], the IGF-1R/IR comparison was determined as 11.7 and the “Ratio over Background” value worked out at 18.7.
On the same counts, the results for IQQELTFYDLLHRLVRSELGS [20E2B-3-D2-IGFR] are 11.7 and 12.4.
Taken in the same sequence, the figures for GGTEVDFYRALERLVRGQLGL [20E2B-3-D8-IGFR] were 11.3 and 17.7.
Taken in the same sequence, the figures for QPAPDGFYSALMKLIGRGGVS [20E2B-3-C8-IGFR] were 8.9 and 15.6.
With AQPCGGFYGLLEQLVGRSVCD [20E2B-4-F10-IGFR], the IGF-1R/IR comparison came out at 7.8 and the “Ratio over Background” value was determined as 17.3.
PGTDLGFYQALRCVVIQGACD [20E2B-2-B2-IGFR]: the IGF-1R/IR comparison was determined as 8.1 and the “Ratio over Background” value came to 4.9.
Taken in the same sequence, the figures for SACQFDCHENFYDWFARQVSGGAAYG [H2CA-4-H8-IGFR] were 9.4 and 9.2.
Taken in the same sequence, the figures for NSRDGGFYLQLERLLGFPVTG [20E2B-3-D4-IGFR] were 9.6 and 7.9.
On the same counts, the results for RFSTDGFYQYLLALVGGGPVG [20E2B-1-A11-IGFR] are 9.7 and 9.5.
